Molecular target: T1, recombinant human Rad17 protein tagged with a Flag epitope at its N terminus, purified from baculovirus infected insect cells
T1 chain: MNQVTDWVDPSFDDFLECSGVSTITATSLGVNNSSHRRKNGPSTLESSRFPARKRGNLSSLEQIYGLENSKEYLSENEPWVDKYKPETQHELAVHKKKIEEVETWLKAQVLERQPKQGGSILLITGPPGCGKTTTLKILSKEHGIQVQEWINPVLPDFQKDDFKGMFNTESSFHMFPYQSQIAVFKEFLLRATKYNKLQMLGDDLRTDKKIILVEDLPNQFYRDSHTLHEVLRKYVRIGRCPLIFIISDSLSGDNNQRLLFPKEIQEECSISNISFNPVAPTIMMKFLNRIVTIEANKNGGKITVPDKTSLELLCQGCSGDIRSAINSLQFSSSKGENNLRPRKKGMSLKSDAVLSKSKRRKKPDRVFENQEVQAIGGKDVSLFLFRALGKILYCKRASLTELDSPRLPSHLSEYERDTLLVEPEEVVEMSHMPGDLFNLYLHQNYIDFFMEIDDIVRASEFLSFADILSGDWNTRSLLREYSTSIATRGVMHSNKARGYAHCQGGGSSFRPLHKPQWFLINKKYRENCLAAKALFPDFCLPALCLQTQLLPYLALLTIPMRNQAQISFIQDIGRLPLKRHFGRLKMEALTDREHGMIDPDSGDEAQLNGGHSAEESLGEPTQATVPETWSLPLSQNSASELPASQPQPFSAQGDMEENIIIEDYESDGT

B1: ATR-ATRIP complex reconstituted in vitro from purified ATR and purified ATRIP (protein)
chain 1: not shown
chain 2: MAGTSAPGSKRRSEPPAPRPGPPPGTGHPPSKRARGFSAAAAPDPDDPFGAHGDFTADDLEELDTLASQALSQCPAAARDVSSDHKVHRLLDGMSKNPSGKNRETVPIKDNFELEVLQAQYKELKEKMKVMEEEVLIKNGEIKILRDSLHQTESVLEEQRRSHFLLEQEKTQALSDKEKEFSKKLQSLQSELQFKDAEMNELRTKLQTSERANKLAAPSVSHVSPRKNPSVVIKPEACSPQFGKTSFPTKESFSANMSLPHPCQTESGYKPLVGREDSKPHSLRGDSIKQEEAQKSFVDSWRQRSNTQGSILINLLLKQPLIPGSSLSLCHLLSSSSESPAGTPLQPPGFGSTLAGMSGLRTTGSYDGSFSLSALREAQNLAFTGLNLVARNECSRDGDPAEGGRRAFPLCQLPGAVHFLPLVQFFIGLHCQALQDLAAAKRSGAPGDSPTHSSCVSSGVETNPEDSVCILEGFSVTALSILQHLVCHSGAVVSLLLSGVGADSAAGEGNRSLVHRLSDGDMTSALRGVADDQGQHPLLKMLLHLLAFSSAATGHLQASVLTQCLKVLVKLAENTSCDFLPRFQCVFQVLPKCLSPETPLPSVLLAVELLSLLADHDQLAPQLCSHSEGCLLLLLYMYITSRPDRVALETQWLQLEQEVVWLLAKLGVQSPLPPVTGSNCQCNVEVVRALTVMLHRQWLTVRRAGGPPRTDQQRRTVRCLRDTVLLLHGLSQKDKLFMMHCVEVLHQFDQVMPGVSMLIRGLPDVTDCEEAALDDLCAAETDVEDPEVECG
With B1 the “phosphorylated Rad17 on DNA (Ser635P)” value was “human replication protein A (RPA) stimulates the phosphorylation of Rad17 by the ATR-ATRIP complex”.

— patent publication US20030165934
